Measured values from patent US7829301B2, “Screening assays for binding antagonists of the AMD-associated variant of factor H (H384)” (The University of Manchester, priority 2006, dated 2010).
Where a chain is given by its changes, count along the chain named.

B1: FHCCP6-8(H384): recombinant protein of Factor H CCPs 6-8, H384 allotype, with N-terminal non-authentic glycine (SEQ ID NO: 1) (protein, listed as Homo sapiens)
chain: MGTLKPCDYPDIKHGGLYHENMRRPYFPVAVGKYYSYYCDEHFETPSGSYWDHIHCTQDGWSPAVPCLRKCYFPYLENGYNQNHGRKFVQGKSIDVACHPGYALPKAQTTVTCMENGWSPTPRCIRVKTCSKSSIDIENGFISESQYTYALKEKAKYQCKLGYVTADGETSGSITCGKDGWSAQPTCI
modifications: VARIANT (1)...(188) Protein sequence of the FHCCP6-8 (H384) construct
B2: FHCCP6-8(Y384): recombinant Factor H CCPs 6-8, Y384 variant obtained by site-directed mutagenesis (SEQ ID NO: 3) (protein, listed as Homo sapiens)
chain: B1 chain with H84Y
modifications: VARIANT (1)...(188) FHCCP6-8 (Y384 allotype of mature Factor H)

Tests used:
[1] = Heparin affinity chromatography on HiTrap Heparin column; format: binding; conditions: pH 7.3; linear salt gradient 130 mM to 1 M NaCl
Experimental: The heparin-binding properties of H384 and Y384 variants of FHCCP6-8 were compared to full-length human factor H by affinity chromatography on a HiTrap Heparin column (Amersham Biosciences) or a ‘home-made’ column in which 20 mg 4IS was coupled to 1.5-ml CNBr-activated Sepharose (Sigma) in 0.1 M NaHCO3, 0.5 M NaCl, pH 8.3 using the manufacturer's protocol. The 1-ml HiTrap column and ˜1-ml 4IS-column were equilibrated in 20 mM HEPES, 130 mM NaCl, 1 mM EDTA, pH 7.3. Protein (200 μg recombinant proteins; 100 μg full-length factor H) was loaded onto the columns (in 1 ml equilibration buffer) and any unbound material was removed with 5 column volumes of the same buffer and collected in 1-ml fractions. Protein was eluted from the columns using a linear salt gradient of 130 mM to 1 M NaCl over 20 min by mixing 20 mM HEPES, 1 M NaCl, 1 mM EDTA, pH 7.3 with the equilibration buffer at a flow rate of 1 ml/min.
This approach was also used to determine the relative heparin-binding activities of K370A, R386A and K387A mutants, where 200 μg of protein was loaded individually onto the HiTrap column.

[2] = Microtitre plate assay: binding to HSI and HSII immobilized on EpranEx plate; design: species or system pig; conditions: HS immobilized on allylamine-coated EpranEx plate
Source text: The heparin/HS/DS-binding activities of the FHCCP6-8(H384) and FHCCP6-8(Y384) variants (using biotinylated-FHCCP6-8 constructs), and in some cases full-length Factor H (detected with an antibody), were compared using an assay where the glycosaminoglycans (GAGs) were immobilized on allylamine-coated EpranEx plates (Mahoney et al (2004) Anal. Biochem. 330, 123-129), kindly supplied by Plasso Technology Ltd., Sheffield, UK. Previously, we have shown that heparin/HS can bind non-covalently to surfaces plasma polymerized with allylamine in such a way that these GAGs can still associate with a wide-range of proteins (Mahoney et al. (2005) J. Biol. Chem. 280, 27044-27055; Mahoney et al. (2004) ibid).
(§1) The following GAG preparations were analyzed: unfractionated heparins corresponding to the 2nd, 4th and 5th International Standards (denoted here as 2IS, 4IS and 5IS, respectively (Mulloy et al. (2000) Thromb. Haemost. 52, 148-153)); enoxaparin, dalteparin and LMr heparin from Sigma (Cat. No. H3400); selectively desulfated heparins prepared from 2IS heparin as described in Mulloy et al. (1994) Carbohydr. […]
(§2) In the case of the biotinylated FHCCP6-8(H384) and FHCCP6-8(Y384) constructs, bound material was detected by adding 200 μl/well of a 1:10,000 dilution of ExtrAvidin alkaline phosphatase (Sigma, Cat. No. E-2636) for 30 minutes. […]

[3] = Microtitre plate assay: biotinylated proteins binding to unfractionated heparin immobilized on EpranEx plates
Experimental: The heparin/HS/DS-binding activities of the FHCCP6-8(H384) and FHCCP6-8(Y384) variants (using biotinylated-FHCCP6-8 constructs), and in some cases full-length Factor H (detected with an antibody), were compared using an assay where the glycosaminoglycans (GAGs) were immobilized on allylamine-coated EpranEx plates (Mahoney et al (2004) Anal. Biochem. 330, 123-129), kindly supplied by Plasso Technology Ltd., Sheffield, UK. […]
as §1, §2
In these plate assays all data points were determined in quadruplicate from each of two independent experiments.

[4] = Biotinylated bovine HS plate assay; format: binding; conditions: proteins immobilised at 1 μg/well
Experimental: The HS binding properties of FHCCP6-8(H384), FHCCP6-8(Y384) and full length Factor H were further tested using biotinylated bovine kidney heparan sulphate (Sigma) where the proteins were coated onto the wells of a Maxisorp microtitre plate (NUNC) at 1 μg/well in PBS (Oxoid; 137 mM NaCl, 2.6 mM KCl, 8.2 mM Na2HPO4, 1.5 mM KH2PO4, pH 7.3) overnight at room temperature. Link_TSG6 (denoted as L-TSG-6 in FIG. 9), a known HS-binding domain (see Mahoney et al. (2005) J. Biol. Chem. 280, 27044-27055) was immobilised at 1 μg/well as a positive control. Plates were blocked the next morning with 1% (w/v) BSA (Sigma, Cat. No. A-4503) in standard assay buffer (20 mM HEPES, 130 mM NaCl, 0.05% (v/v) Tween-20, pH 7.3) for 90 minutes at 37° C. The standard assay buffer was used for all subsequent incubations, dilutions and washes at room temperature. The biotinylated HS was incubated at various concentrations with the immobilised proteins for 4 hours. Bound material was detected by adding 200 μl/well of a 1:10,000 dilution of ExtrAvidin alkaline phosphatase (Sigma, Cat. No. E-2636) for 30 minutes. Plates were then developed with 200 μl/well of 1 mg/ml disodium p-nitrophenylphosphate (pNPP; Sigma) in 0.05 M Tris-HCl, 0.1 M NaCl, pH9.3, and developed for 40 minutes; the absorbance at 405 nm was measured and the signal from blank wells subtracted.

Row | Molecule | NaCl concentration at elution from HiTrap heparin affinity column [1] | binding to HS preparations HSI and HSII [2] | binding to immobilized unfractionated heparins compared to FHCCP6-8(Y384) ([3]; 2IS, 4IS and 5IS) | interaction with biotinylated bovine kidney HS [4] | binding to 4IS heparin relative to FHCCP6-8(H384) ([3]; heparin bound to allylamine-coated surface, biotinylated proteins)
1 | B1 | 340 mM NaCl | lack of activity | more of the FHCCP6-8(H384) protein bound | interact | 
2 | B2 | 390 mM NaCl | lack of activity |  | interact | bind less well
